Measured values published in paper PMC9234707, “Type II BMP and activin receptors BMPR2 and ACVR2A share a conserved mode of growth factor recognition” (The Journal of Biological Chemistry, 2022).

Molecular target: the molecule itself
Assay: crystal structure; purified GF combined with 1.2 M excess of purified, deglycosylated receptor GBD; buffer exchanged to 10 mM Tris-HCl, 40 mM NaCl, pH 8.0; BMPR2-activin B crystals in 14% PEG 3K, 175 mM (NH4)2SO4, 100 mM BisTris pH 5.4; ACVR2A-activin A crystals in 17% PEG 3K, 100 NaCitrate pH 5.8

Protein | binding result
activin A (ligand, human (by the printed accession), UniProt P08476 311-426, looked up, activin A (inhibin beta A chain), full mature moiety, residues 311 to 426; disulfide linked dimer; it was removed with the prodomain; also called ActA; INHBA) GLECDGKVNICCKKQFFVSFKDIGWNDWIIAPSGYHANYCEGECPSHIAGTSGSSLSFHSTVINHYRMRGHSPFANLKSCCVPTKLRPMSMLYYDDGQNIIKKDIQNMIVEECGCS | binds
activin B (ligand, human (by the printed accession), UniProt P09529 293-407, looked up, activin B (inhibin beta B chain), full mature moiety, residues 293 to 407; disulfide linked dimer; also called ActB; INHBB) GLECDGRTNLCCRQQFFIDFRLIGWNDWIIAPTGYYGNYCEGSCPAYLAGVPGSASSFHTAVVNQYRMRGLNPGTVNSCCIPTKLSTMSMLYFDDEYNIVKRDVPNMIVEECGCA | binds
